Assay results as given in US20210061896A1 (SHANGHAI YILE BIOTECHNOLOGY, published 2021).
Ends that are not written are not given here.

T1: biotinylated DH peptide fragment (human, also: biotinylated (position not given here))
T1 construct: Synthesized in vitro; 12 amino acids; also called polypeptide DH
T1 peptide: DAANMSMRVRRH

T2: biotinylated LL peptide fragment (human, also: biotinylated (position not given here))
T2 construct: Synthesized in vitro; 12 amino acids
T2 peptide: LLFLLEEYKNYL

T3: biotinylated VP peptide fragment (human, also: biotinylated (position not given here))
T3 construct: Synthesized in vitro; 12 amino acids
T3 peptide: VMLSSQVPLEPP

T4: full length GST-huBDNFpro (human, UniProt P23560 20-129)
T4 construct: GST is placed at the N-terminus by the printed name only; not shown: Glutathione S-transferase (GST) fusion partner
T4 chain: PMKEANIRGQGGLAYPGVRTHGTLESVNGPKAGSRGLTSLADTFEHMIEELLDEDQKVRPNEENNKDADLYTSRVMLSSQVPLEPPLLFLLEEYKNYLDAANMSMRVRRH

T5: GST-huBDNFpro-E2 peptide fragment (human, UniProt O18755 76-129 (Procyon lotor entry))
T5 construct: also called polypeptide E2; not shown: Glutathione S-transferase (GST) fusion partner
T5 sequence: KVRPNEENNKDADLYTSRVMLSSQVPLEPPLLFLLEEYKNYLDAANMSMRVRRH

T6: GST-huBDNFpro-E5 peptide fragment (human)
T6 construct: the text speaks of 36 amino acids; also called polypeptide E5; not shown: Glutathione S-transferase (GST) fusion partner
T6 chain: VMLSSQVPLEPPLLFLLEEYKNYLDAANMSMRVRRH

T7: GST-huBDNFpro E1
T7 construct: also called GST-huBDNFpro-E1 peptide fragment; GST fusion partner and any linker between GST and the peptide not given
T7 chain: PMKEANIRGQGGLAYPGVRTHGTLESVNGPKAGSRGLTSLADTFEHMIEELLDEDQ

T8: GST-huBDNFpro E4
T8 construct: also called GST-huBDNFpro-E4 peptide fragment; GST fusion partner and any linker between GST and the peptide not given
T8 chain: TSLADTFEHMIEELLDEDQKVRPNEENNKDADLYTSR

T9: human proBDNF precursor protein (human, UniProt P23560 19-247)
T9 construct: also called human proBDNF precursor recombinant protein
T9 sequence (looked up): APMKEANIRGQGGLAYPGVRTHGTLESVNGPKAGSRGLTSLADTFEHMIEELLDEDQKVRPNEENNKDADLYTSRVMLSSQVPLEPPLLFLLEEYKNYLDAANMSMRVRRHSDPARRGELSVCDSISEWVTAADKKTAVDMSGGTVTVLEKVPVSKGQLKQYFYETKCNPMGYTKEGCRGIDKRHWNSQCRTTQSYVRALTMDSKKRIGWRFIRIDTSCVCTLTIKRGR

B1: single-chain antibody 2H8 (scFv)
scFv: EVQLVETGGGLVQPGGSLRLSCAASGFTFSSYGMHWVRQAPGKGLEWVSVISGSGDSTYYAESVKGRFTISRDNARNTVYLQMNSLRAEDTAVYYCASGILTGYVFDYWGKGTMVTVSSGGGGSGGGGSGGGGSDVVMTQSPLSLPVTLGQPASISCRSSQSLVSNDGNTYLNWFQQRPGQPPRRLIYMVSKWDSGVPDRFSGSGSGTDFTLRISRVEAEDVGVYYCMQSTHWPPTFGGGTKLEIKR
notes: probably a print error; also called 2H8, scFv; pCantab-2H8
B2: 1D3 monoclonal antibody (antibody, human IgG4, kappa, V domains shown)
VH: QVQLVESGGGLIQPGGSMRLSCAASGFSLSGYDMHWVRQIAGKGLEWVAGLGMEGDSYYSASVKGRFTISRQDAKNSLYLEMKDLGGGDTAVYYCLRDVHGFDVWGQGTTVTVSS
VL: DVVMTQSPLSLPVTPGEPASISCRSSQSLLYSNGYTYLDWYLQRPGQSPQLLIYMGSNRASGVPDRFSGSGSGTDFTLKISRVEAEDVGVYYCMQALQTPLTFGGGTKLEIKR
notes: also called recombinant monoclonal antibody 1D3 (human IgG1 type); Ab-proBDNF (1D3)
B3: 2H8 monoclonal antibody (antibody, human IgG4, kappa, V domains shown)
VH: EVQLVETGGGLVQPGGSLRLSCAASGFTFSSYGMHWVRQAPGKGLEWVSVISGSGDSTYYAESVKGRFTISRDNARNTVYLQMNSLRAEDTAVYYCASGILTGYVFDYWGKGTMVTVSS
VL: DVVMTQSPLSLPVTLGQPASISCRSSQSLVSNDGNTYLNWFQQRPGQPPRRLIYMVSKWDSGVPDRFSGSGSGTDFTLRISRVEAEDVGVYYCMQSTHWPPTFGGGTKLEIKR
notes: also called recombinant monoclonal antibody 2H8 (human IgG1 type)
B4: single-chain antibody 1D3 (scFv)
scFv: QVQLVESGGGLIQPGGSMRLSCAASGFSLSGYDMHWVRQIAGKGLEWVAGLGMEGDSYYSASVKGRFTISRQDAKNSLYLEMKDLGGGDTAVYYCLRDVHGFDVWGQGTTVTVSSGGGGSGGGGSGGGGSDVVMTQSPLSLPVTPGEPASISCRSSQSLLYSNGYTYLDWYLQRPGQSPQLLIYMGSNRASGVPDRFSGSGSGTDFTLKISRVEAEDVGVYYCMQALQTPLTFGGGTKLEIKR
notes: also called 1D3, scFv; pCantab-1D3

What was measured:
[1] = molecular target: T10, BSA (UniProt P02769 25-607); assay: single-phage ELISA
T10 construct: also called negative control protein BSA
Protocol: Ninety-six clones were randomly selected from the fourth round of screening, and single-phage ELISA (enzyme-linked immunosorbent assay) was used to analyze their binding ability to human proBDNF precursors. For this purpose, each single colony was inoculated into 300 μl of 2×YT/ampicillin medium (containing 2% glucose) in a 96-well deep-well culture plate, shaken and cultured at 37° C. and 250 rpm for 16 hours. 20 μl of the culture was inoculated into 500 μl of 2×YT/ampicillin medium (containing 0.1% glucose), and shaken and cultured at 37° C. and 250 rpm for 1.5 hours. For preparing helper phage solution, 75 μl of M13KO7 (titer: 3×10¹² pfu/ml) was taken and mixed into 15 ml of 2×YT medium, added to the culture plate at 50 μl/well, and incubate at 37° C. and 150 rpm for 30 minutes. And then, the prepared kanamycin solution was added at 50 μl/well (180 μl of 50 mg/ml kanamycin was taken and added to 15 ml 2×YT medium), and shaken and cultured at 37° C. and 250 rpm for 16 hours. […]
To perform a single phage ELISA, a 96-well MediSorp ELISA plate (purchased from Nunc) was coated with 100 ng/well antigen human proBDNF precursor and negative control protein BSA (100 μl/well) respectively, overnight at 4° C. […] The extinction value was measured at 450 nm using an enzyme-linked immunoassay device (Bio-Rad).

[2] = molecular target: T1, biotinylated DH peptide fragment; assay: ELISA on biotinylated synthetic peptides (Example 8), single condition, concentrations not given
[3] = molecular target: T2, biotinylated LL peptide fragment; assay: as above
[4] = molecular target: T3, biotinylated VP peptide fragment; assay: as above
[5] = molecular target: T11, GST-GPC3; assay: ELISA on GST fusion proteins (Example 7), single condition, concentrations not given
T11 construct: fusion tag; It appears to be the negative control antigen

[6] = molecular target: T4, full length GST-huBDNFpro; assay: as above
[7] = molecular target: T5, GST-huBDNFpro-E2 peptide fragment; assay: as above
[8] = molecular target: T6, GST-huBDNFpro-E5 peptide fragment; assay: as above
[9] = molecular target: T12, GST-huBDNFpro E3; assay: as above
T12 construct: fusion tag; also called GST-huBDNFpro-E3 peptide fragment

[10] = molecular target: T7, GST-huBDNFpro E1; assay: as above
[11] = molecular target: T8, GST-huBDNFpro E4; assay: as above
[12] = molecular target: T7, GST-huBDNFpro E1; assay: ELISA on GST fusion proteins (Example 7), single condition
[13] = molecular target: T8, GST-huBDNFpro E4; assay: as above
[14] = molecular target: T2, biotinylated LL peptide fragment; assay: ELISA on biotinylated peptide
[15] = molecular target: T3, biotinylated VP peptide fragment; assay: ELISA on biotinylated peptide
[16] = molecular target: T9, human proBDNF precursor protein; assay: SPR, Biacore T200, capture method, antigen 0.25-8 nM
Protocol: The affinity and kinetic parameters of the 1D3 and 2H8 monoclonal antibodies were measured by the capture method using Biacore T200 system (purchased from GE), respectively. The system was manipulated according to the instructions, human proBDNF precursor protein was used at a concentration of 0.25 nM, 0.5 nM, 1 nM, 2 nM, 4 nM, and 8 nM, respectively. The Biacore T200 evaluation software was used to evaluate the resulting action curve and calculate the affinity KD value.

T10 sequence (P02769 25-607 limits assumed): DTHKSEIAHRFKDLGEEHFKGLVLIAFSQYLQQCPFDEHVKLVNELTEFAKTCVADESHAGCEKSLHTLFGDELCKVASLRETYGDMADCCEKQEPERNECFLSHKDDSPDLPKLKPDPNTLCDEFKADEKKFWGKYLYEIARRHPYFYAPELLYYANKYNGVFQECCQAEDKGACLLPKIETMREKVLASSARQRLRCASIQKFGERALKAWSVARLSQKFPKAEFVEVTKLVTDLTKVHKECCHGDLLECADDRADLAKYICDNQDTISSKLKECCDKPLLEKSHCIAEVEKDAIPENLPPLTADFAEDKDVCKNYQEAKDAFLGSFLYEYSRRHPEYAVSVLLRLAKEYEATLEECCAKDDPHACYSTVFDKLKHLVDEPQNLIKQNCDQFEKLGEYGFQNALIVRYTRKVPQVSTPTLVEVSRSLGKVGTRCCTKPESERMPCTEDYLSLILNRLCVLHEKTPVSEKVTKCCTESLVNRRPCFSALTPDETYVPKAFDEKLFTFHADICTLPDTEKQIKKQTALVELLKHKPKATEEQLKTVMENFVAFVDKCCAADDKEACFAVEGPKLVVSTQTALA

Binder | binding result [1] | OD450nM [2] | OD450nM [3] | OD450nM [4] | OD450nM [5] | OD450nM [6] | OD450nM [7] | OD450nM [8] | OD450nM [9] | OD450nM [10] | OD450nM [11] | binding result [12] | binding result [13] | binding result [14] | binding result [15] | Kd [16] [nM] | koff [16] [s⁻¹] | kon [16] [M⁻¹ s⁻¹]
B1 | no binding (tested: 100 ng/well coated) | – | – | – | – | – | – | – | – | – | – | – | – | – | – | – | – | –
B2 | – | 1.7 | 0.0167 | 0.0122 | 0.0577 | 0.625 | 0.914 | 0.979 | 0.0245 | 0.0114 | 0.0081 | no binding | no binding | no binding | no binding | – | – | –
B3 | – | 0.831 | 0.0115 | 0.0104 | 0.05 | 0.758 | 0.962 | 1.06 | 0.0144 | 0.015 | 0.0089 | no binding | no binding | no binding | no binding | 1.91 | 0.00594 | 3.1e+06
B4 | no binding (tested: 100 ng/well coated) | – | – | – | – | – | – | – | – | – | – | – | – | – | – | – | – | –
